Columns and labels:
[1] = molecular target: T1, human IL-20 receptor alpha (human, UniProt Q9UHF4 30-250, limits assumed); test: competitive ELISA: biotinylated 280-346-TSY on plate-coated human IL-22RA-ECD, soluble competitor titrated, peroxidase-conjugated streptavidin, OD 450nm
T1 construct: also called hIL-20R; IL-20R alpha
T1 sequence (looked up): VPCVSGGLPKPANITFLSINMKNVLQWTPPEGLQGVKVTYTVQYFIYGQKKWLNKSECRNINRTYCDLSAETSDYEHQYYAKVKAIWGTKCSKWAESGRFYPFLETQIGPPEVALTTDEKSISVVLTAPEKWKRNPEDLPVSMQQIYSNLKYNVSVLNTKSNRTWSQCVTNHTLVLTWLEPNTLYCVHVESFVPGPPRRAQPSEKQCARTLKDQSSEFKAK
Procedure: (§1) FIG. 23 reports the results of a competitive ELISA done to measure the specificity of 280.346.TSY to human IL-22RA. Microtiter plates were coated with human IL-22RA-ECD (i.e. IL-22RA-Extra Cellular Domain). Biotinylated 280-346-TSY antibody was added to the plate in the presence of competitors: human interleukin 22 receptor alpha (hIL-22RA), human IL-22 binding protein (hIL-22BP), murine IL-22 receptor alpha (mIL-22RA), human IL-10 receptor alpha (hIL-10R) and human IL-20 receptor alpha (hIL-20R).
(§2) Specificity and binding affinity of 280.346.TSY was determined using a competitive ELISA. Microtiter plates were coated with human IL-22RA-ECD (i.e. IL-22RA-Extra Cellular Domain). Biotinylated 280-346-TSY antibody was added to the plate in the presence of competitors: human interleukin 22 receptor alpha (hIL-22RA), human IL-22 binding protein (hIL-22BP), mouse IL-22 receptor alpha (mIL-22RA), human IL-10 receptor alpha (hIL-10R) and human IL-20 receptor alpha (hIL-20R).

[2] = molecular target: T2, human IL-22 binding protein (human, UniProt Q969J5-2 22-231, limits assumed); test: as above
T2 construct: also called hIL-22BP; IL-22BP
T2 sequence (looked up): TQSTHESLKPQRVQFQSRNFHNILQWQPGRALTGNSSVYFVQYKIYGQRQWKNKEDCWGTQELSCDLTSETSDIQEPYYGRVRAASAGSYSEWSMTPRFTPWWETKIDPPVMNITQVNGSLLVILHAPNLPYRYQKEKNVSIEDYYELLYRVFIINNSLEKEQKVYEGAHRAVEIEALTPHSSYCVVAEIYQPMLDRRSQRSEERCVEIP
Procedure: as §1, §2

[3] = molecular target: T3, human IL-10 receptor alpha (human, UniProt Q13651 22-235, limits assumed); test: as above
T3 construct: also called hIL-10R; IL-10R alpha
T3 sequence (looked up): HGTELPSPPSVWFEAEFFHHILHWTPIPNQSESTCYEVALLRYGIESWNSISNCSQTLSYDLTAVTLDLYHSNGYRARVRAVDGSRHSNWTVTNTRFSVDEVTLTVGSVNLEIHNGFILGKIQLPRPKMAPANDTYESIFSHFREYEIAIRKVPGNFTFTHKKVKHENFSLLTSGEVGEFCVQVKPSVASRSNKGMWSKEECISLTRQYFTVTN
Procedure: as §1, §2

[4] = molecular target: T4, human IL-22RA-ECD (IL-22RA-Extra Cellular Domain) (human, UniProt Q8N6P7 16-228); test: Biacore, IL-22RA-ECD with 6 His tag
T4 construct: also called human IL-22RA extracellular domain; hIL-22RA coated on the plates; not shown: 6 His tag
T4 sequence: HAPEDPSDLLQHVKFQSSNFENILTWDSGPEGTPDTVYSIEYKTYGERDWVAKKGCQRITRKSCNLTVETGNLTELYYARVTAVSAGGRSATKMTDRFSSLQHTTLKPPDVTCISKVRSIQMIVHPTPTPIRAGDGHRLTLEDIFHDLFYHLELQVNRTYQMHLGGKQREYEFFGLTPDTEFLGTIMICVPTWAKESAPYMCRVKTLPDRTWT

mouse IL-22RA-ECD [5] = molecular target: T5, mouse IL-22RA-ECD (mouse, UniProt Q80XZ4 16-230); test: Biacore, IL-22RA-ECD with 6 His tag
T5 construct: extracellular domain; Produced in HEK-293 cells and NiNTA-purified; not shown: 6 His tag
T5 sequence (looked up): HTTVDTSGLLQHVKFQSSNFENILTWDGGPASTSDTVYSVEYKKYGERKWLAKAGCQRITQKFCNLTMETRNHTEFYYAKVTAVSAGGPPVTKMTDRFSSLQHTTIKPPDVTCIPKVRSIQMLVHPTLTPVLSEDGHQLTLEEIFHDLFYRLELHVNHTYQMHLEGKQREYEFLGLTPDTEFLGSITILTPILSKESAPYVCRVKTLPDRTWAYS

rat IL-22RA-ECD [6] = molecular target: T6, rat IL-22RA-ECD (rat); test: Biacore, IL-22RA-ECD with 6 His tag
T6 construct: extracellular domain; Produced in HEK-293 cells and NiNTA-purified

[7] = molecular target: T7, marmoset monkey IL-22RA-ECD (marmoset monkey); test: Biacore, IL-22RA-ECD with 6 His tag
T7 construct: extracellular domain; Produced in HEK-293 cells and NiNTA-purified

dog IL-22RA-ECD = molecular target: T8, dog IL-22RA-ECD (dog); test: Biacore, IL-22RA-ECD with 6 His tag
T8 construct: extracellular domain; Produced in HEK-293 cells and NiNTA-purified

[8] = molecular target: T4, human IL-22RA-ECD (IL-22RA-Extra …); test: KinExA, IL-22RA-ECD with 6 His tag
mouse IL-22RA-ECD [9] = molecular target: T5, mouse IL-22RA-ECD; test: KinExA, IL-22RA-ECD with 6 His tag
rat IL-22RA-ECD [10] = molecular target: T6, rat IL-22RA-ECD; test: KinExA, IL-22RA-ECD with 6 His tag
[11] = molecular target: T7, marmoset monkey IL-22RA-ECD; test: KinExA, IL-22RA-ECD with 6 His tag
[12] = molecular target: T9, cynomolgus monkey IL-22RA-ECD (cynomolgus monkey); test: KinExA, IL-22RA-ECD with 6 His tag
T9 construct: extracellular domain; Produced in HEK-293 cells and NiNTA-purified

[13] = molecular target: T10, rhesus monkey IL-22RA-ECD (rhesus monkey); test: KinExA, IL-22RA-ECD with 6 His tag
T10 construct: extracellular domain; Produced in HEK-293 cells and NiNTA-purified

mouse IL-22RA-ECD [14] = molecular target: T5, mouse IL-22RA-ECD; test: KinExA and Biacore, IL-22RA-ECD with 6 His tag

binding result [1]: no binding
binding result [2]: no binding
binding result [3]: no binding
Kd [4]: ~0.15 nM
Kd (mouse IL-22RA-ECD [5]): ~20 nM
Kd (rat IL-22RA-ECD [6]): ~1000 nM
Kd [7]: 0.4 nM
Kd (dog IL-22RA-ECD): 100 nM
Kd [8]: ~0.0285 nM
Kd (mouse IL-22RA-ECD [9]): ~4.85 nM
Kd (rat IL-22RA-ECD [10]): ~587 nM
Kd [11]: ~0.0385 nM
Kd [12]: ~0.0645 nM
Kd [13]: ~0.137 nM
fold lower affinity compared to human IL-22RA (mouse IL-22RA-ECD [14]): ~100 fold
B1: 280.346.TSY (humanized anti-human IL-22RA antibody comprising 280.VH3-66-46 paired with 280.VK4-1-TSY, human IgG1/kappa) (antibody, V domains shown)
VH: EVQLVESGGGLVQPGGSLRLSCAASGYSITAEYMNWVRQAPGKGLEWIGEINPSTGTTTYNQKFKGRFTISVDQSKNTAYLQMNSLRAEDTAVYYCARFDAYFDYWGQGTLVTVSS
VL: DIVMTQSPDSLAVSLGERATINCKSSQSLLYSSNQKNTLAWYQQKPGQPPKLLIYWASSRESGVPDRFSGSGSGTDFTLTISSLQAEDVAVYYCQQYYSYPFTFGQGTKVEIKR
notes: Produced in CHO cells; also called 280.VH3-66-46/VK4-1-TSY; 280.VH3-66.46 paired with 280.IGKV4-1-TSY
